Test results as given in PMC10975569.

T1: ostreolysin A6 (P. ostreatus) (UniProt P83467)
T1 sequence: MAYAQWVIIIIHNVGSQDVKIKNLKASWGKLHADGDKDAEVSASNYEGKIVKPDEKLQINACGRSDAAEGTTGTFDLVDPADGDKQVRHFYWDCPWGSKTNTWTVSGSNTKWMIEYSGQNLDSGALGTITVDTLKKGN

B1: pleurotolysin B (Δ48PlyB) (domain or fragment)
chain: SQAGDTLNDVIQDPTRRNKLINDNNLLKGIIMGRDGPVPSSRELIVRPDTLRAIINNRATIETTTMEAEFTETLMESNYNSASVKVSAPFITANSEYSESSSFKNTETEKSMYTSSRYLFPQGRIDFTTPDSGFDDVIKLSPQFTSGVQAALAKATGTEKREALQNLFQEYGHVFRTKVHIGGVLSAHTMETFSRSENETEVKQDVKAGLEGAVKGWGGGATAGHGNTQGTITTSQNRKLNVKYIVNGGDYTKIQNTEEWVASTNQSEHWRVIEVTEVTAVADLLPQPIRGQVKDLLKPLLGKWVDVEKVPGLESLPVSVYRPKGAIPAGWFWLGDTADASKALLVKPTLPARSGRNPALTSLHQGSGMTEQPFVDLPQYQYLSTYFGSFAHDTPPGSTLRGLRPDHVLPGRYEMHGDTISTAVYVTRPVDVPFPEDECFDLKSLVRVKLPGSGNPPKPRSALKKSMVLFDSGEK

Experiments:
[1] = biological target: heterolysin A (H. irregulare TC 32-1)
[2] = biological target: T1, ostreolysin A6 (P. ostreatus)

Molecule	time of 100% hemolysis of bovine red blood cells, pH 6.0; NudA 1, 0.1 and 0.01 µM, NudA:NudB 10:1 (0.7 to 48.8 min) (nudolysin A (L. nuda)) [min]	time of 100% hemolysis of bovine red blood cells, pH 7.0; NudA 1 and 0.1 µM, NudA:NudB 10:1 (0.7 to 11.1 min); at 0.01 µM 100% hemolysis did not occur (nudolysin A (L. nuda)) [min]	time of 100% hemolysis of bovine red blood cells, pH 8.0; NudA 1 µM, NudA:NudB 10:1; at 0.1 and 0.01 µM 100% hemolysis did not occur (nudolysin A (L. nuda)) [min]	time of 100% hemolysis of bovine red blood cells, pH 6.0; HetA 1, 0.1 and 0.01 µM, HetA:PlyB 10:1 (0.7 to 9.8 min) [1] [min]	time of 100% hemolysis of bovine red blood cells, pH 7.0; HetA 1 and 0.1 µM, HetA:PlyB 10:1 (1.3 to 8.2 min); at 0.01 µM 100% hemolysis did not occur [1] [min]	time of 100% hemolysis of bovine red blood cells, pH 8.0; HetA 1 and 0.1 µM, HetA:PlyB 10:1 (0.7 to 5.3 min); at 0.01 µM 100% hemolysis did not occur [1] [min]	time of 100% hemolysis of bovine red blood cells, pH 6.0; OlyA6 1, 0.1 and 0.01 µM, OlyA6:PlyB 10:1 (0.7 to 2.7 min) [2] [min]	time of 100% hemolysis of bovine red blood cells, pH 7.0; OlyA6 1, 0.1 and 0.01 µM, OlyA6:PlyB 10:1 (0.7 to 20.6 min) [2] [min]	time of 100% hemolysis of bovine red blood cells, pH 8.0; OlyA6 1, 0.1 and 0.01 µM, OlyA6:PlyB 10:1 (0.7 to 26.4 min) [2] [min]
nudolysin B (Δ30NudB) (domain or fragment)	48.8	11.1	2						
B1				9.8	8.2	5.3	2.7	20.6	26.4
